B1: UV excision repair protein RAD23 homolog B (Homo sapiens), P54727 (parent)
chain: MQVTLKTLQQQTFKIDIDPEETVKALKEKIESEKGKDAFPVAGQKLIYAGKILNDDTALKEYKIDEKNFVVVMVTKPKAVSTPAPATTQQSAPASTTAVTSSTTTTVAQAPTPVPALAPTSTPASITPASATASSEPAPASAAKQEKPAEKPAETPVATSPTATDSTSGDSSRSNLFEDATSALVTGQSYENMVTEIMSMGYEREQVIAALRASFNNPDRAVEYLLMGIPGDRESQAVVDPPQAASTGAPQSSAVAAAAATTTATTTTTSSGGHPLEFLRNQPQFQQMRQIIQQNPSLLPALLQQIGRENPQLLQQISQHQEHFIQMLNEPVQEAGGQGGGGGGGSGGIAEAGSGHMNYIQVTPQEKEAIERLKALGFPEGLVIQAYFACEKNENLAANFLLQQNFDED

Variants of: B1
Details: with ef1a1_human EEF1A1, P68104
ef1a1_human EEF1A1, P68104, sequence (P68104 whole entry): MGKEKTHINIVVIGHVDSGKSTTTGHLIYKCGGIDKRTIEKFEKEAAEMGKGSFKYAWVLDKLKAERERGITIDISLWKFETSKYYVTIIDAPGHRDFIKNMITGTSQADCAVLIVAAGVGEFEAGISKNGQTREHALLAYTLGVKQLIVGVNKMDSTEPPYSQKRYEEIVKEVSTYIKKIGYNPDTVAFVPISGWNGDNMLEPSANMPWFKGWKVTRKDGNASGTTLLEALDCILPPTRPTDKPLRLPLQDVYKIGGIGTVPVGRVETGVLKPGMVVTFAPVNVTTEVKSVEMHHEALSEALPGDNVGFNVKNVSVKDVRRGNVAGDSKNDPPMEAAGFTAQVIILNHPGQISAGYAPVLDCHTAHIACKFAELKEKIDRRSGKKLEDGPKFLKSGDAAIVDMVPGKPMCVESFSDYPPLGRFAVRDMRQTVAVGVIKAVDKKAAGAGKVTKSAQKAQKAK

Row | effect of a mutation on the interaction | Variant
1 | disrupting interaction | K6A

Variants of: B1
Details: with uba3_human UBA3, Q8TBC4
uba3_human UBA3, Q8TBC4, sequence (Q8TBC4 whole entry): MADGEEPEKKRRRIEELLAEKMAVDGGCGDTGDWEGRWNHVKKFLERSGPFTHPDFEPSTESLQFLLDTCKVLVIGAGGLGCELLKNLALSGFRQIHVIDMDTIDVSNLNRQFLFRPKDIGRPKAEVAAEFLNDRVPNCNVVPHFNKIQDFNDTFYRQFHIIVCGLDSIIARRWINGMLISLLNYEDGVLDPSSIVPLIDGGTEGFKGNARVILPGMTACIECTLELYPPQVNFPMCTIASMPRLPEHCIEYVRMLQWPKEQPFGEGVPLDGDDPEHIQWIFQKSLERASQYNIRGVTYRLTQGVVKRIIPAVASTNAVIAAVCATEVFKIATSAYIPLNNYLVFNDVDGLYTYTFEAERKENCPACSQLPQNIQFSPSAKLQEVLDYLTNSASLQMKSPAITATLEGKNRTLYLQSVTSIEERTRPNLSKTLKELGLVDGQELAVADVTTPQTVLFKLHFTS

Row | effect of a mutation on the interaction | Variant
2 | increasing interaction | K6A
